Measured values: US20150344570A1 (published 2015)

T1: FcγRIIa R extracellular domain with C-terminal His tag (human, UniProt P12318 34-217)
T1 construct: extracellular domain; also called FcgRIIa R; 2aR; not shown: His tag at the C terminus
T1 sequence (looked up): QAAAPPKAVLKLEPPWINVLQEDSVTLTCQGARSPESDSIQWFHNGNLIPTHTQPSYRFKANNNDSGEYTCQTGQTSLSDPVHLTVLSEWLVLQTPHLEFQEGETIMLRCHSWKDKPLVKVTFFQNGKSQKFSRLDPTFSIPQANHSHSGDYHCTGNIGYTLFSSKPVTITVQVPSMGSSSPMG

B1: GpH7-A5/GpH7-B3 variant P238_04F/GpL16-k0 (antibody, human IgG1, kappa)
heavy 1: not shown
heavy 2: not shown
light: DIVMTQSPLSLPVTPGEPASISCQASESLVHSNRNTYLHWYLQKPGQSPQLLIYKVSNRFSGVPDRFSGSGSGTDFTLKISRVEAEDVGVYYCSQNTHVPPTFGQGTKVEIERTVAAPSVFIFPPSDEQLKSGTASVVCLLNNFYPREAKVQWKVDNALQSGNSQESVTEQDSKDSTYSLSSTLTLSKADYEKHKVYACEVTHQGLSSPVTKSFNRGEC
notes: heterodimerized: alteration in one H chain only; also called He Ab P238_04F
B2: GpH7-A5/GpH7-B3 variant K334_08L/GpL16-k0 (antibody, human IgG1, kappa)
heavy 1: not shown
heavy 2: not shown
light: B1 light
notes: heterodimerized: alteration in one H chain only; also called He Ab K334_08L
B3: GpH7-A5/GpH7-B3 variant S267_09D/GpL16-k0 (antibody, human IgG1, kappa)
heavy 1: not shown
heavy 2: not shown
light: B1 light
notes: heterodimerized: alteration in one H chain only; also called He Ab S267_09D
B4: GpH7-A5/GpH7-B3 variant A327_09D/GpL16-k0 (antibody, human IgG1, kappa)
heavy 1: not shown
heavy 2: not shown
light: B1 light
notes: heterodimerized: alteration in one H chain only; also called He Ab A327_09D
B5: GpH7-A5/GpH7-B3 variant P331_02A/GpL16-k0 (antibody, human IgG1, kappa)
heavy 1: not shown
heavy 2: not shown
light: B1 light
notes: heterodimerized: alteration in one H chain only; also called He Ab P331_02A
B6: GpH7-A5/GpH7-B3 variant S298_08L/GpL16-k0 (antibody, human IgG1, kappa)
heavy 1: not shown
heavy 2: not shown
light: B1 light
notes: heterodimerized: alteration in one H chain only; also called He Ab S298_08L
B7: GpH7-A5/GpH7-B3 variant S239_08L/GpL16-k0 (antibody, human IgG1, kappa)
heavy 1: not shown
heavy 2: not shown
light: B1 light
notes: heterodimerized: alteration in one H chain only; also called He Ab S239_08L
B8: GpH7-A5/GpH7-B3 variant K326_08L/GpL16-k0 (antibody, human IgG1, kappa)
heavy 1: not shown
heavy 2: not shown
light: B1 light
notes: heterodimerized: alteration in one H chain only; also called He Ab K326_08L
B9: GpH7-B3 variant S337_16H/GpL16-k0 (antibody, human IgG1, kappa)
heavy: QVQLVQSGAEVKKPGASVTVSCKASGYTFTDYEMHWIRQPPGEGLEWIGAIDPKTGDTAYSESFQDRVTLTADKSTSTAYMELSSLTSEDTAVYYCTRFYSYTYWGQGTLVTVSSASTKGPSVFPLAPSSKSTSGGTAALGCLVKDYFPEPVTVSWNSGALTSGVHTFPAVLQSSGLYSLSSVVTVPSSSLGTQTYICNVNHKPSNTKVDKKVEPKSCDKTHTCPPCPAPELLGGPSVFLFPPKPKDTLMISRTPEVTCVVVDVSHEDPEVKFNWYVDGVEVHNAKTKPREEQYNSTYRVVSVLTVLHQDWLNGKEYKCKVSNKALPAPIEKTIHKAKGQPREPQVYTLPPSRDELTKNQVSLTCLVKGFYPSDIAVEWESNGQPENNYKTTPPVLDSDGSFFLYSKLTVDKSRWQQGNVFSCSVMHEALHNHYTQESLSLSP
light: B1 light
notes: homodimerized: alteration in both H chains; also called Ho Ab S337_16H
B10: GpH7-A5/GpH7-B3 variant P331_15Y/GpL16-k0 (antibody, human IgG1, kappa)
heavy 1: not shown
heavy 2: not shown
light: B1 light
notes: heterodimerized: alteration in one H chain only; also called He Ab P331_15Y
B11: GpH7-A5/GpH7-B3 variant H268_01G/GpL16-k0 (antibody, human IgG1, kappa)
heavy 1: not shown
heavy 2: not shown
light: B1 light
notes: heterodimerized: alteration in one H chain only; also called He Ab H268_01G
B12: GpH7-B3 variant T335_05P/GpL16-k0 (antibody, human IgG1, kappa)
heavy: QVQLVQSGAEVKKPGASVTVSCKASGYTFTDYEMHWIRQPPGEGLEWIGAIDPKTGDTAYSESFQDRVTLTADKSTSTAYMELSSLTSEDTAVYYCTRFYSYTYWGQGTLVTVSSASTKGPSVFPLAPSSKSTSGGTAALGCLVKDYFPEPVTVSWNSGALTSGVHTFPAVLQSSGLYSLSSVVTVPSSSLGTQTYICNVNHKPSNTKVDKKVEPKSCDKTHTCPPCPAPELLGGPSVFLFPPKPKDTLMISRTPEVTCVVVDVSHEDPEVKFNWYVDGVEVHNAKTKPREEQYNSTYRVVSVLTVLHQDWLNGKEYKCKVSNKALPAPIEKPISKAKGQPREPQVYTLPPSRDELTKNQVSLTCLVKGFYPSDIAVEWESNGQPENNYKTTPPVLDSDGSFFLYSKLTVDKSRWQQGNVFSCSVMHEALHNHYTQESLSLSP
light: B1 light
notes: homodimerized: alteration in both H chains; also called Ho Ab T335_05P
B13: GpH7-B3 variant T335_07I/GpL16-k0 (antibody, human IgG1, kappa)
heavy: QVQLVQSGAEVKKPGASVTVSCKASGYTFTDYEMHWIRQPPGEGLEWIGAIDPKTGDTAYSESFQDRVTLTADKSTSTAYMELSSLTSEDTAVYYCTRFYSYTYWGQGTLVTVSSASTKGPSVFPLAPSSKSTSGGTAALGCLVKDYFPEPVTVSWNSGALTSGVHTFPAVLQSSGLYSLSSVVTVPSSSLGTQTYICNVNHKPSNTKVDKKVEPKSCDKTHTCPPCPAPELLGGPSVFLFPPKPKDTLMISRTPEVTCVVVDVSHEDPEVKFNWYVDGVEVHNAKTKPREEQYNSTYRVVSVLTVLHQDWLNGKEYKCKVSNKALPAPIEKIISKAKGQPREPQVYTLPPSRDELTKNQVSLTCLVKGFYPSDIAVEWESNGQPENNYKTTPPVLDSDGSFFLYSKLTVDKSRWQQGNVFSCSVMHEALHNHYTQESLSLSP
light: B1 light
notes: homodimerized: alteration in both H chains; also called Ho Ab T335_07I
B14: GpH7-A5/GpH7-B3 variant K334_02A/GpL16-k0 (antibody, human IgG1, kappa)
heavy 1: not shown
heavy 2: not shown
light: B1 light
notes: heterodimerized: alteration in one H chain only; also called He Ab K334_02A
B15: GpH7-A5/GpH7-B3 variant I336_08L/GpL16-k0 (antibody, human IgG1, kappa)
heavy 1: not shown
heavy 2: not shown
light: B1 light
notes: heterodimerized: alteration in one H chain only; also called He Ab I336_08L
B16: GpH7-B3 variant S337_15Y/GpL16-k0 (antibody, human IgG1, kappa)
heavy: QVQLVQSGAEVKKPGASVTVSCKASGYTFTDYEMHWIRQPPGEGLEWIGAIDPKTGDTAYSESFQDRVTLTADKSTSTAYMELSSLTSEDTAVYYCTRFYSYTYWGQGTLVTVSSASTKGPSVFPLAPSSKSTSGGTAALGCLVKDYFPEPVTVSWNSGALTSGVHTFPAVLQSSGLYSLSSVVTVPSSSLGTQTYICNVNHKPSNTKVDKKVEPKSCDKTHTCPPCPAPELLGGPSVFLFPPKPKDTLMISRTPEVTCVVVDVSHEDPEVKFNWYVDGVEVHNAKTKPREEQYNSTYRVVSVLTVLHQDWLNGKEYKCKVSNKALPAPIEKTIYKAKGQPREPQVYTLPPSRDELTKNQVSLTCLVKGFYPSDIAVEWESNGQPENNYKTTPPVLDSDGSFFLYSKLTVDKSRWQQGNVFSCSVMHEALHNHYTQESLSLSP
light: B1 light
notes: homodimerized: alteration in both H chains; also called Ho Ab S337_15Y
B17: GpH7-A5/GpH7-B3 variant K334_05P/GpL16-k0 (antibody, human IgG1, kappa)
heavy 1: not shown
heavy 2: not shown
light: B1 light
notes: heterodimerized: alteration in one H chain only; also called He Ab K334_05P
B18: GpH7-A5/GpH7-B3 variant P271_08L/GpL16-k0 (antibody, human IgG1, kappa)
heavy 1: not shown
heavy 2: not shown
light: B1 light
notes: heterodimerized: alteration in one H chain only; also called He Ab P271_08L
B19: GpH7-A5/GpH7-B3 variant K326_04F/GpL16-k0 (antibody, human IgG1, kappa)
heavy 1: not shown
heavy 2: not shown
light: B1 light
notes: heterodimerized: alteration in one H chain only; also called He Ab K326_04F
B20: GpH7-B3 variant S337_20W/GpL16-k0 (antibody, human IgG1, kappa)
heavy: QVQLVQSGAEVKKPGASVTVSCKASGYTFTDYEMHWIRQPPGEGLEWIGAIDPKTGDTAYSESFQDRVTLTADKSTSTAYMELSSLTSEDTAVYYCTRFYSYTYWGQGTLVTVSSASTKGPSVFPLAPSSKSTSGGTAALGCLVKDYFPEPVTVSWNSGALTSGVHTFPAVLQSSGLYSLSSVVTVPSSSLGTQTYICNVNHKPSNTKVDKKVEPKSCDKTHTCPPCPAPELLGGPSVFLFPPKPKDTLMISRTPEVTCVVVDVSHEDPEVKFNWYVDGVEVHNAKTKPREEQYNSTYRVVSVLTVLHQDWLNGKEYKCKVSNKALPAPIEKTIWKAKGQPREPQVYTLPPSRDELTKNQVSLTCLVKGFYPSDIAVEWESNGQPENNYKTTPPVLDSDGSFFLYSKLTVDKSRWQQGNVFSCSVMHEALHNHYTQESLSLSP
light: B1 light
notes: homodimerized: alteration in both H chains; also called Ho Ab S337_20W
B21: GpH7-A5/GpH7-B3 variant S239_18N/GpL16-k0 (antibody, human IgG1, kappa)
heavy 1: not shown
heavy 2: not shown
light: B1 light
notes: heterodimerized: alteration in one H chain only; also called He Ab S239_18N
B22: GpH7-A5/GpH7-B3 variant L328_13S/GpL16-k0 (antibody, human IgG1, kappa)
heavy 1: not shown
heavy 2: not shown
light: B1 light
notes: heterodimerized: alteration in one H chain only; also called He Ab L328_13S
B23: GpH7-A5/GpH7-B3 variant L328_14T/GpL16-k0 (antibody, human IgG1, kappa)
heavy 1: not shown
heavy 2: not shown
light: B1 light
notes: heterodimerized: alteration in one H chain only; also called He Ab L328_14T
B24: GpH7-A5/GpH7-B3 variant A330_01G/GpL16-k0 (antibody, human IgG1, kappa)
heavy 1: not shown
heavy 2: not shown
light: B1 light
notes: heterodimerized: alteration in one H chain only; also called He Ab A330_01G
B25: GpH7-A5/GpH7-B3 variant K326_03V/GpL16-k0 (antibody, human IgG1, kappa)
heavy 1: not shown
heavy 2: not shown
light: B1 light
notes: heterodimerized: alteration in one H chain only; also called He Ab K326_03V
B26: GpH7-A5/GpH7-B3 variant K334_19Q/GpL16-k0 (antibody, human IgG1, kappa)
heavy 1: not shown
heavy 2: not shown
light: B1 light
notes: heterodimerized: alteration in one H chain only; also called He Ab K334_19Q
B27: GpH7-A5/GpH7-B3 variant A330_12R/GpL16-k0 (antibody, human IgG1, kappa)
heavy 1: not shown
heavy 2: not shown
light: B1 light
notes: heterodimerized: alteration in one H chain only; also called He Ab A330_12R

Experiments:
[1] = biological target: T1, FcγRIIa R extracellular domain with …; assay: SPR (Biacore), relative FcγRIIa R binding, GpH7-A5/GpH7-B3/GpL16-k0 = 100
[2] = biological target: T1, FcγRIIa R extracellular domain with …; assay: SPR (Biacore), relative FcγRIIa R binding, GpH7-B3/GpL16-k0 = 100
Method: Analysis of interaction between objective antibody and the FcγR was carried out using Biacore T100 (GE Healthcare). HBS-EP+ (GE Healthcare) was used as the running buffer, and the measurement temperature was set to 25° C. Chips produced by immobilizing the antigen peptide by the amine coupling method to a Series S Sencor Chip CM5 (GE Healthcare), or alternatively, chips produced by allowing preliminarily biotinylated antigen peptides to interact with and immobilize onto a Series S Sensor Chip SA (certified) (GE Healthcare) were used. Antibodies of interest were captured onto an antigen peptide-immobilized chip, and allowed to interact to each FcγR diluted with running buffer. To regenerate and repeatedly use the chip, the antibodies captured on the chip were washed off by reacting 10 mM glycine-HCl, pH 1.5.

Binder | He/Con_2aR [1] | Ho/Con_2aR [2]
B1 | 174 % of control | 
B2 | 106 % of control | 
B3 | 173 % of control | 
B4 | 124 % of control | 
B5 | 106 % of control | 
B6 | 105 % of control | 
B7 | 122 % of control | 
B8 | 137 % of control | 
B9 |  | 107 % of control
B10 | 112 % of control | 
B11 | 124 % of control | 
B12 |  | 104 % of control
B13 |  | 107 % of control
B14 | 105 % of control | 
B15 | 110 % of control | 
B16 |  | 100 % of control
B17 | 103 % of control | 
B18 | 104 % of control | 
B19 | 135 % of control | 
B20 |  | 105 % of control
B21 | 111 % of control | 
B22 | 117 % of control | 
B23 | 119 % of control | 
B24 | 109 % of control | 
B25 | 141 % of control | 
B26 | 109 % of control | 
B27 | 104 % of control | 
